Experiment: yeast display, Sf9 membrane polyspecificity reagent, FACS + sequencing; frameworks hold sequencing errors
Method in brief: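 Genes from sorted yeast were amplified by colony PCR, read by MiSeq 2 × 250 sequencing and filtered on CDR length. These cells carried a synthetic nanobody library in Saccharomyces cerevisiae BJ5465 and were sorted by FACS into low and high (top ~1%) gates on anti-HA and streptavidin fluorescence. Polyreactivity is labelled according to the gate of origin.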

Sequence | polyreactivity (PSR sort gate)
QVHLVESGGGLVQAGVSLRLSCAAYVRIFGRNAMGWYRQAPGKEREFVAAITYSGTSTYYADSVKGRFTISRDNAKNTVYLQMNSLKREDTAVYYCNAQYLPSHVYGRYSSTFNYWGQGTQLTVSS | low polyreactivity
QVHLVESGGGLVQAVSSLRLSCAASGSTFRAYAMGWYRQEPGKDRELVARITFSGGSTYYADSVKGRFTISRDNAKNTVYLQMNSLKPEDTAVYYCNARRTYLDRYNYWGQGTQVTVSS | high polyreactivity
QVHLVESGGGVVQAGGSLRLSCAASGRIFPSYDRGWYRQAPGKERELVATISSRGDSTYYADSVKGRFTISRDNAKNTVYLQMNSLKPEDTAVYYCAAERPFWEYDYWGQGTQVTVSS | low polyreactivity
QVHLVESGGRLVQAGGSLRLSCAASGGTFYQYTMGWYRQAPGKERELVAAITRSGGSTRYADTVKGRFTISRDNAKNTVYLQMNSLKPEDTAVFYCAARSGYPSFEYWGPGTQVTVSS | high polyreactivity
QVHLVESGGVLVQAGGSLRLSCAASGSIFAKYAMGWYRQAPGKERELVAAISRSSVRTRYADSVKGRFTISRDNAKNTVYLQMNSLKPADTAVYYCNAYYRSYAYSHLDYWGQGTQVTVSS | high polyreactivity
QVHLVESGGVLVQAGGSLRLSCAASGSPFTKYAMGWYRQAPGKERELVAAFTGGGGSTYYADSVKGRFTISRDNAKNTVYLQLNSLKPEDSAVYYCAAKVALSRFRQWSYDYWGQGTQVTVSS | low polyreactivity
QVHLVESGRGLVQAGGSLRLSCAASGSTFGWNTMGWYRQAPAKERELVAAISWSGDRTYYADSVKGRFTISRDNAKNTVYLQMNRLKPEDTAVYYCARQRYYGYYYWGQGTQVTVSS | high polyreactivity
QVHLVESGVGLGQAGGSLRLSCAASGSIFYSNAMGWYRPAPGKERELVATITWSGGRTYYADSVKGRFTISRDYAKNTFYLQMHSLKPEDTAVYYCAAVSIYWGHGTQVTVSS | low polyreactivity
QVHLVESGVGLVQAGGSLRLSCAASGRIFFANPIGWYRQAPGKERELVAANSRGGRTNYADSVKGRFTISRDNAKNTVYLQMNSLNPEDTAVYYCAAVRLSHAPSYYLYGMDYWGQGTQVTVSS | low polyreactivity
QVHLVESGVGLVQAGGSLRLSCAAYGYTFTRNAKGWSRQAPGKERELVAAISKRGGTTYYADSVKGRFTISRDNEKYSVYLQMNSLKPEDTAVYYCAKDGGITGGYWGQGTQVTVSS | high polyreactivity
QVHLVESGVGLVQAGGSLRLSCASSGRIFYDNSMGWYRQAPGKERELVAAISYRGGSTYYADSVKGRFTISRDNAKNTVYLLMNSLKPEDTAVYYCARAGFTTCPDHDSWGQGTQVTVSS | high polyreactivity
QVHLVESGVGLVQAGVSHRLSCAASGSTYRGYAMGWYRQAPGKERELVAPITYISDSTYYADSVKGRFTISRDNAKNTVYLQMNSLKPEDSAVYYCNDYYDGDWRYTSQETGDNWGQGTQVTVSS | low polyreactivity
QVHLVESVGGLLQAGGSLPLSCPASGSTFYDYAMGWYRPAPGKERELVASITTGGDSTYYADSVKGRFTISRDNAKNSVYLQMKSLIPEDSAVYYFNADWYYWFSNYQGAPEMDYWGQGTQVSVSS | high polyreactivity
QVHLVESVGGLVQAGGSLRLSCAASGRIFGYYAMGWYRQAPGKERELVAAISTNGGTTYYADSVKGRFTISRDNAKNTVYLQMNSLKPEDTAVYYCAATYTVPGHARYDYWGQGTQVTVSS | low polyreactivity
QVHLVESVGGLVQAGGSLRLSCTASGSTCVAYDMGWYRQAPGQERDLVAAITSSGGRTYYADSVKGRFKFSLDNAMNTVYLQMNSLKPEDTAVYYCAAVTHGRYDWGQGPQVTVSS | high polyreactivity
QVHLVESVGGLVQAGGSLRLSSAASGSTFGYYAMGWYRQAPGKERELVAAINARGGSTYYADSVKGRFTISRDNAKNTVYLQMNSLKPEDTAVYYCAAVHIYSYGIYDYWGQGTQVTVSS | high polyreactivity
QVHLVESVGRLVQEGGSLRLICAASAFNIYTYAMGWSRQAPGKEREMVAAISKSGGSTYSADSVKGRFTISRDNAKNTVYVQMNSLKPVDTAVYYCAVSDARHLGSGRYYWCQGTQVTVSS | low polyreactivity
QVHLVETGGALVQAGGSLRISCAASGLTFLDYAMGWYRQSTGKERELGAAITSGGSTNYADSVKGRFTISGDNATTTVYFQMISLKPEDTAVYYCATDLEVSAYDYWGQGNQVTVSS | low polyreactivity
QVHLVETGGCLVQAGGSLRLSCAASGRTFYQNTMGWYRQAPGKERELVAAISSGGSTHYADSVKGRFTISRDNAKNTVYLQMNSLKPEDTAVYYCAKRYFYSYRYGYWGQGTQVTVSS | high polyreactivity
QVHLVETGGGLVQAGGSLRLSCAASGITFDQYAMGWYRQAPGKERELVAAITGSGGNTYYADSVKGRFTISRDNAKNTVYLQMNSLKPEDTAVYSCGAAVGRARDYWGQGTQVTVSS | low polyreactivity
QVHLVQSGGGIDQAGGSLRLSCAASGSTYVVNTMGWYRQAPGKDRELVAANTQSGGSTFYADSVKGRFTISRDNAKNTVYLHMTSLKAEDTAVYYCNAGDFEGAVVVFIQHGGYYWGQGTQVTVSS | low polyreactivity

Sequence | polyreactivity (PSR sort gate)
QVHLVVSGGGLVQAGGSLRLSCAAYGRTFRIYAMGWYRQAPGKDRELVARITKRAGSTYYADSVKGRFTISRDNAKNTVYLQMNRLKPEDTSVYYCAADVRVQYRQDLTYDYWGQGTQVTVSS | high polyreactivity
QVHLVVSWGGLVQAGGSLRLSCSASGITFKRYAMGWYRQSRGNERELVAAINWNGCGTYYADSVKGRFTISRDNAKNTVYLQMNSLKPEDTAVYYCAAGLAYWYWRGYDYWGQGTQVTVSS | high polyreactivity
QVHRVESGGGLVQAGASLRLSCAASGIIFDTYAMGCYRQAPGKEREIVAAITWNGGSTYYADSVKGRFTISRDNAKNPVYLQMNSLKPEDTPVYYCAKLPRTLTEYGYKGYYWGQGTQVTVSS | low polyreactivity
QVHVVESGGGLVQAGGSLGLSCAASGITFTAYAMGWYRQAPGKERELVATINSTGITNYADSVKGRFTISRDNSKNTVFLQMNSLKPEDTAVYYCAADLLDISSYDGMDYWGQGTQVTVSS | low polyreactivity
QVHVVESGGGLVQAGGSLRLSCAASGRTFYGYAMGWYRQAPGKERELVAGITSGGNTNYADSVKGRFTISRDNAKNTVYLQMNSLKPEDTAVYYCAADRYSFRGDYYWGQGTQVTVSS | low polyreactivity
QVKIVESGGGLVQAGGSLRLSCAATGITFAWYAMGWYRQAPGKERELVAAITWSGDSTYYADSVKGRFTISRDNAKNTVYLQMKSLKPEDTAVYYCAAEGLVFWFGTPYDYWGQGTQVTVSS | high polyreactivity
QVKLEESAGGLVQSGGSLRISCAASGSTLVSNAMGWYRQAPGQERELVADNSLSGGSTYYADSVKGRFTISRDYAKNTVYLQMNSLKPEDTEVYYCARVAPSSGVRWYYYWGQGTQVTVSS | high polyreactivity
QVKLEESGGGLVQEGGSLRISCAASVRIFGNYSMGWSRQAPGKEMELVAAIDLSGDSTYYADSVKGRFTISRDNAKNTVYLQMNSLKPEDTAVYYCAATDWFSEYYWGQATQVTVSS | low polyreactivity
QVKLLDSGGGLVQAGGSLRLSCAASGRNFYYYAMGWYRQAPGNERELVAAISSCGSTYADSVKGRFTISRDNAKTTVYLQMNSLKPEDTAVYYCAAYLSRLGPSGYYYWGQGTQVTVSS | high polyreactivity
QVKLLESGGGLVQAGGSLRLTCAASGFIFRRYTMGWYRHAPGEEREWVAAISITGSRTYYADSVKGRFTISPDNAKNNVYLQMNSLKPEDTAVYYCAADPDKSSAGDFDYWGHGTQVTVSS | high polyreactivity
QVKLLESGGGLVQSGGSLRLSCAAYAIIFRWYTMGGYRQAPGKERQLVAAISTSTGSTYYADSVKGRFTISRDNAKNTVYLQMNSLKPEDTAVYYCAADYAYWNYESYYWGQGTQVTVSS | high polyreactivity
QVKLQESGDGLVQAGGSLRLSSAASGTIFSDYGMGGYRQAPGKERELLAGISDGCNTNYTDSVKGRFTISRDNAHRVSADEQPETGGYRGVLLRGSERWLLFFVYWGQGTQVTVSS | high polyreactivity
QVKLVASGGGLVQEGGSLRLSCAASGRIFGNYAMGWYRQAPGKERELVAAIDLSGDSTYYADSVKGRFTISRDNAKNTVYLQMNSLKPEDTAVYYCAADPDLLWEYSDGYYGGDGGYWGQGTQVTVSS | low polyreactivity
QVKLVDSGGGLVQAGGSLRLSCAASGNIFYRYAMGWYRQAPGKERELVAAISGNSGNTYYADSVKGRFTISRDNAKNTVYLQMNSLKPDDTAVYYCAAERRAFGHYSWGQGTQVTVSS | high polyreactivity
QVKLVDSGGGLVQAGGSLRLSCAASGSIFGAYAMGWYRQAHGKERELVAPITLRDGSTYYADSVKGRFTISRDNAKNTVYLQLNSLKPEDTAVYYCATYYSAINYGWSKTILYDYWGQGTQVTVSS | low polyreactivity
QVKLVESAGCLVQAGGSLRLSCAASGRIFRRYAMGWYRQSTGKESELVAAISSRGGLTYYADSVKGRFTISRDNAKNTVYLLMNSLKTEDTAVYYCAAYYFVTETYGPYEYWGQGTQVTVSS | high polyreactivity
QVKLVESCGGLVQAGGSLRLSCAASGYISSFNTKGWYRQAPGKERELVAAITRDGSTYYADSVKGRFTISRDNAKNSVYLQMNSLKPEYTAVYYCAARGWYATWLYYYWGQGSQVTVSS | high polyreactivity
QVKLVESGGALVQAGCSLRLSCAASARTFPVYAMGWYRQAPGKERELVAAIRYSAGSTYYADSVKGRFTISRDNAKITVYLQMNSLKPEDSSVSYCARTTPTGRQYRRYDYWGQGTQLTVSS | low polyreactivity
QVKLVESGGCLVQEGGSHRLSCAASGYIFDAYAMGWYRQAPGQERELVAAIDIGGSTYYADSVKGRFTISRDNAKNTVYLQMNSLKPEDTAVYYCAVWFYFDQWDYAREYWGQGTQVTVSS | low polyreactivity
QVKLVESGGCLVQSGGSLRLSCADYRSIFWNNSMGWYRQATGKEWELGAGISSAGSTNYSDSVKGRFTISRDNAKNTVYLQMNSLKPEDTAVYYCAAEQYRYGIRRRHYDYWGQGTQVTLSS | low polyreactivity
